Results from patent publication US20040198705A1, “Modulation of steroid hormone uptake” (priority 2001, published 2004).
Where two headings read alike, the source gives them in different places.

Tests used:
[1] = target: megalin expressed on Brown Norway yolk sac carcinoma cells (BN16 cells) (UniProt P98158); experiment: cell-based or functional assay
purified native megalin = experiment: surface plasmon resonance, native megalin immobilised (51.4 fmol/mm^2), 1 µM testosterone/SHBG complexes in flow, blank chip subtracted
[2] = target: SHBG receptors in bovine endometrium membranes permeabilized in digitonin (bovine); experiment: homologous competition, filter binding: 125I-rSHBG (400 pg) on 600 µg bovine endometrium membranes permeabilized in digitonin, with testosterone, 4 °C 18 h; unlabelled rSHBG varied, 125I-rSHBG as the displaced tracer
[3] = target: SHBG receptors in bovine epididymis membranes permeabilized in digitonin (bovine); experiment: homologous competition, filter binding: 125I-rSHBG (400 pg) on 600 µg bovine epididymis membranes permeabilized in digitonin, with testosterone, 4 °C 18 h; unlabelled rSHBG varied, 125I-rSHBG as the displaced tracer
[4] = target: SHBG receptors in bovine epididymis membranes permeabilized in digitonin (bovine); experiment: radioligand filter binding to digitonin-permeabilized bovine epididymis membranes, competition with unlabelled rSHBG
[5] = test system: SHBG receptors in bovine endometrium membranes; experiment: 125I-rSHBG binding to permeabilized endometrium membranes; details: bovine endometrium membranes permeabilized in digitonin, competition with unlabelled rSHBG
Procedure: (§1) FIG. 8. 125I-rSHBG (400 pg) was incubated with 600 μg of membrane preparations from bovine epididymis (A) or endometrium (B) in the presence of the indicated concentrations of unlabelled rSHBG. Values are given as a percentage of 125I-rSHBG bound in the absence of competitor (100%). The data represent the means of four individual experiments (±S.E.M.). Where no error bar is shown, the values are smaller than the actual symbol.
(§2) To test whether recombinant SHBG (rSHBG) interacts with SHBG receptors and in particular whether rSHBG can act as an inhibitor of SHBG binding to an SHBG receptor, the binding of rSHBG to bovine epididymis and endometrium membranes permeabilized in digitonin was assayed. Binding was performed in the presence of testosterone, to achieve steroid hormone-steroid hormone binding protein complex formation.
(§3) Briefly, purified recombinant SHBG was labelled with ^125I using the Iodo-Gen™ method [specific radioactivity (13-15)×10^3 c.p.m./ng]. 400 pg of ^125I—SHBG was mixed with 600 μg of purified membranes (either bovine epididymis or bovine endometrium membranes permeabilized in digitonin) in a total volume of 200 μl of reaction buffer [10 mM Hepes, pH 7.4, 2 mM CaCl2, 1 mM MgCl2, 1% (w/v) BSA, 1 µM ZnCl2, […] testosterone and […] digitonin]. […] The filters were washed extensively with reaction buffer and the amount of bound radioactivity was determined.

[6] = test system: SHBG receptors in bovine epididymis membranes; experiment: 125I-rSHBG binding to permeabilized epididymis membranes
Procedure: as §1, §2, §3

SHBG receptor = details: read-out: Kd of receptor binding, cited from earlier work

Sequence of UniProt P98158 (P98158 26-4660 limits assumed): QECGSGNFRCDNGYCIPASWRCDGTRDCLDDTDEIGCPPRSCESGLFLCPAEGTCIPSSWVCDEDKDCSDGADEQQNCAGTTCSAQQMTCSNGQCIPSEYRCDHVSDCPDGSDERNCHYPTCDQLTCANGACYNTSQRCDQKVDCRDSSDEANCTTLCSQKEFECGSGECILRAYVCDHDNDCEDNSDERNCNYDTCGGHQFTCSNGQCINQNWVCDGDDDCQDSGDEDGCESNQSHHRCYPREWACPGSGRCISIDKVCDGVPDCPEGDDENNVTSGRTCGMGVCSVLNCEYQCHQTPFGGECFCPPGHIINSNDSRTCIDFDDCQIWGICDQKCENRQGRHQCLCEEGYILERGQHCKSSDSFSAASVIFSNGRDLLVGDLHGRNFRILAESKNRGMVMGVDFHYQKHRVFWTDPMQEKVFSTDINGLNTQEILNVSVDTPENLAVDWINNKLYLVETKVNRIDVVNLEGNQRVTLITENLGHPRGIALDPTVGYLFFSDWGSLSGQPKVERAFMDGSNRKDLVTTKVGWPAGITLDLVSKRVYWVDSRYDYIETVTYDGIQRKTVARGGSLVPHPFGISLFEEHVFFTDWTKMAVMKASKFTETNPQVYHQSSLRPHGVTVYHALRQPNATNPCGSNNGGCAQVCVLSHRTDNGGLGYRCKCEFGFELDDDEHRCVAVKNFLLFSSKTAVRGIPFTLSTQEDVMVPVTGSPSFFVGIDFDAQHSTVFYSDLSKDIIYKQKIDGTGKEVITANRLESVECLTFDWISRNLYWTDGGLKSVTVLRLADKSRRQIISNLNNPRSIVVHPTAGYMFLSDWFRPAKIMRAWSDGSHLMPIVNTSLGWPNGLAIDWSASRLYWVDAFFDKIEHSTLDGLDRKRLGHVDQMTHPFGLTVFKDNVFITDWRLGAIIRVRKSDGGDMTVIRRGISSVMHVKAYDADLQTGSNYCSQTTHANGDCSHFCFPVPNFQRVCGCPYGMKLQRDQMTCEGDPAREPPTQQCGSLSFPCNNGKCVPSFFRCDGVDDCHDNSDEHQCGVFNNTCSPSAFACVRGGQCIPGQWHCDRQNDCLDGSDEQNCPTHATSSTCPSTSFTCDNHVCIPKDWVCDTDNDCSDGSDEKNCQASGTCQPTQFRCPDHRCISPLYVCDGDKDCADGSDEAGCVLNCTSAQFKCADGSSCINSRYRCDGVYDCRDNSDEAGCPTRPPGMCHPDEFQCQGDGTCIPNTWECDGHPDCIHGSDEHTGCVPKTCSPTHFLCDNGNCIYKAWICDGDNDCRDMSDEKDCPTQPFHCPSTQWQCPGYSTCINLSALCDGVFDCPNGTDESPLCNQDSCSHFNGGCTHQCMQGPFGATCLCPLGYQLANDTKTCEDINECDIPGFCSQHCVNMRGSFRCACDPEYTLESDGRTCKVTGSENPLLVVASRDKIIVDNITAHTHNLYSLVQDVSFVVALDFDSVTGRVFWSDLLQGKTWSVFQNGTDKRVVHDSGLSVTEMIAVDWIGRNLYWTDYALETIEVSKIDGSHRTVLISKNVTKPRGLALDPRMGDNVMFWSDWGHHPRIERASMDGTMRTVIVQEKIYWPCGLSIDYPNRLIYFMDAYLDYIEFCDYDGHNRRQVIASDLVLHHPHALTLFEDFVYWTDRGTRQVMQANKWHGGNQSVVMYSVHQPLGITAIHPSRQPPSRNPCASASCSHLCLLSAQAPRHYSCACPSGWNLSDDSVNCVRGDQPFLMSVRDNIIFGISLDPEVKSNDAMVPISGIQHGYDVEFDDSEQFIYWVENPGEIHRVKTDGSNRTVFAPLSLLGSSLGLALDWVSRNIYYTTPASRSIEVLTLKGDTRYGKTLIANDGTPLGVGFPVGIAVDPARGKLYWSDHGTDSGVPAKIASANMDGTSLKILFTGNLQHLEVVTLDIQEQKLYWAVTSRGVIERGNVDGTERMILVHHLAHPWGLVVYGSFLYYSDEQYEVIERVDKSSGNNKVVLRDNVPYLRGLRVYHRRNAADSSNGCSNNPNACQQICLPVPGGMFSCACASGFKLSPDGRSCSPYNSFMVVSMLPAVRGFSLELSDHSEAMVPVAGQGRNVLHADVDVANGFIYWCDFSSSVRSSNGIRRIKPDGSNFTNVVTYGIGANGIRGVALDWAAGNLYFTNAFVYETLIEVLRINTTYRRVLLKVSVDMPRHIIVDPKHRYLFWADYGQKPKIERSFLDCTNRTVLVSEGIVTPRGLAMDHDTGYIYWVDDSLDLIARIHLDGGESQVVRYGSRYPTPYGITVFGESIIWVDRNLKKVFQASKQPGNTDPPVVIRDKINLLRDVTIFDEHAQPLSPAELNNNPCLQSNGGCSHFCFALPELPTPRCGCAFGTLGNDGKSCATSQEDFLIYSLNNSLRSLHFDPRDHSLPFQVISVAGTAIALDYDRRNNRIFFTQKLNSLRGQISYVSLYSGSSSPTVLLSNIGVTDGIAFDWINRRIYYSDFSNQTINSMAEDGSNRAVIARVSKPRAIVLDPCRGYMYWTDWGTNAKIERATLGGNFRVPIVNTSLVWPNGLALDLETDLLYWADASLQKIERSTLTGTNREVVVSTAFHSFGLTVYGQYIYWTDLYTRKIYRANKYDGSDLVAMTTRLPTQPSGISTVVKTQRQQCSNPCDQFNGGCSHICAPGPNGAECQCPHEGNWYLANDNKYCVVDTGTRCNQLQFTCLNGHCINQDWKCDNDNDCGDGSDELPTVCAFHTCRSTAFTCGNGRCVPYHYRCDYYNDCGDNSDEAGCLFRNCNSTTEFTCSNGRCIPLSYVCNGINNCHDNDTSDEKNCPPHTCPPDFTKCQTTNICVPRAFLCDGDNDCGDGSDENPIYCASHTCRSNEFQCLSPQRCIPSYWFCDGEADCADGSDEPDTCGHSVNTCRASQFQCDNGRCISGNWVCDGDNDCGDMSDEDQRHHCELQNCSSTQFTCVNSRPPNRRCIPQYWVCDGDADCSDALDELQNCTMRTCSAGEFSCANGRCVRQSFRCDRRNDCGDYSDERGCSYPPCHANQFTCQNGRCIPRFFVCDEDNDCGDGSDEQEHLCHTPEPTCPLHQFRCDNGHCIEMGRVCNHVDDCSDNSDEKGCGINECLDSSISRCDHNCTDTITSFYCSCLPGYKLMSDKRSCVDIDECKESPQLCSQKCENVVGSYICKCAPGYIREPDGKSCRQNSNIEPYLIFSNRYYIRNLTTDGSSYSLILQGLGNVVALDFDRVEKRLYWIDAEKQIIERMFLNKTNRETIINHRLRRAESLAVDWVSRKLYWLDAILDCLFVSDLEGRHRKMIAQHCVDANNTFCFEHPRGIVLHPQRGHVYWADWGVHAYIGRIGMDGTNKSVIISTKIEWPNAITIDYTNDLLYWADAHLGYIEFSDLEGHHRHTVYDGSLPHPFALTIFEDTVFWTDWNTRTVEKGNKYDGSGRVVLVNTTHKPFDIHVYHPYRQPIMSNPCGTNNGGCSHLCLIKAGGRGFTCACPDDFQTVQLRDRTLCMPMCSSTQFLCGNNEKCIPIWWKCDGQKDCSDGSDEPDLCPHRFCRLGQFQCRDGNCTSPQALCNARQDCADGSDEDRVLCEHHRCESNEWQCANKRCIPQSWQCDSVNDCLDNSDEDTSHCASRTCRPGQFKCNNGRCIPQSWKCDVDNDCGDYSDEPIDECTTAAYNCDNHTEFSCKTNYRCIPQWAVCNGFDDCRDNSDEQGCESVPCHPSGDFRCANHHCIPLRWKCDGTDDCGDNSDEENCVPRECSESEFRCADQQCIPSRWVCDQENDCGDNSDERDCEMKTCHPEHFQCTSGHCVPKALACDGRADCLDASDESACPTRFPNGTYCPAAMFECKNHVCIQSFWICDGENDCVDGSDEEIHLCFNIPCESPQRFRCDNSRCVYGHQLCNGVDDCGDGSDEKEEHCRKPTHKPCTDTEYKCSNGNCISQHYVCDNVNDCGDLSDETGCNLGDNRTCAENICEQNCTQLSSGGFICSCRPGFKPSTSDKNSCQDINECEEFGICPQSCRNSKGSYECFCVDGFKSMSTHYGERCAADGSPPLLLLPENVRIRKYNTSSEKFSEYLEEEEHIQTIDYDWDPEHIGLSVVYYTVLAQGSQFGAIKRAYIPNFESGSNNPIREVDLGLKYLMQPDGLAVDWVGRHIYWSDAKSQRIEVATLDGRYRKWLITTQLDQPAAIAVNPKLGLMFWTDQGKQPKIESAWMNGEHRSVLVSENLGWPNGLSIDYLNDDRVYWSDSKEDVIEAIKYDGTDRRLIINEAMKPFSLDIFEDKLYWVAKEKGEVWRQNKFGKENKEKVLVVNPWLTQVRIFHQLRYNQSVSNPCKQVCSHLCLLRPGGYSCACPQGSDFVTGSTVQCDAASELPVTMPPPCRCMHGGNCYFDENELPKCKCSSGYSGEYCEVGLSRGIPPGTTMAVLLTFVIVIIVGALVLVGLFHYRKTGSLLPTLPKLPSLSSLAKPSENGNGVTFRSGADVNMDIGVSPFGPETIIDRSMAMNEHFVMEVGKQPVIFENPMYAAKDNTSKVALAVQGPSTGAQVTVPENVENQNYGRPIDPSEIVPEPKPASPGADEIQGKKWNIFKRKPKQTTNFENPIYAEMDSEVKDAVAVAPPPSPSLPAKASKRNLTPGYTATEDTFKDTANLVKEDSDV

Which cell-associated [3H]-DHT after 4 hours at 37° C. in the presence of GST-RAP [1] does the source give for “fusion protein of GST and the receptor-associated protein (GST-RAP)” here?
The cell-associated [3H]-DHT after 4 hours at 37° C. in the presence of GST-RAP was 70000 cpm.

And the reduction in [3H]-DHT uptake in the presence of GST-RAP [1]?
Its reduction in [3H]-DHT uptake in the presence of GST-RAP is 75%.

For “testosterone/SHBG complex (sex hormone binding globulin with bound testosterone) (from UniProt P04278 30-402) (ligand)”, which Kd (purified native megalin) is on record?
Its Kd is 140 nM.

For “recombinant SHBG (rSHBG), 125I-labelled, in the presence of testosterone (from UniProt P04278 30-402) (ligand)”, which IC50 (read off the curve) [2] is on record?
Its IC50 (read off the curve) is 3 µM.

And the IC50 (read off the curve) [3]?
The IC50 (read off the curve) was 1 µM.

And the Kd [4]?
The Kd was 500 nM.

With “complexes of [3H]-dihydrotestosterone (DHT) and sex hormone binding globulin (SHBG) (ligand)” as the molecule, how does the cell-associated [3H]-DHT after 4 hours at 37° C. in the presence of GST (control) [1] read?
The cell-associated [3H]-DHT after 4 hours at 37° C. in the presence of GST (control) was 300000 cpm.

B1: rSHBG: recombinant SHBG, 125I-labelled, tested for binding to SHBG receptors (protein, UniProt P04278 30-402, looked up)
Sex hormone-binding globulin: LRPVLPTQSAHDPPAVHLSNGPGQEPIAVMTFDLTKITKTSSSFEVRTWDPEGVIFYGDTNPKDDWFMLGLRDGRPEIQLHNHWAQLTVGAGPRLDDGRWHQVEVKMEGDSVLLEVDGEEVLRLRQVSGPLTSKRHPIMRIALGGLLFPASNLRLPLVPALDGCLRRDSWLDKQAEISASAPTSLRSCDVESNPGIFLPPGTQAEFNLRDIPQPHAEPWAFSLDLGLKQAAGSGHLLALGTPENPSWLSLHLQDQKVVLSSGSGPGLDLPLVLGLPLQLKLSMSRVVLSQGSKMKALALPPLGLAPLLNLWAKPQGRLFLGALPGEDSSTSFCLNGLWAQGQRLDVDQALNRSHEIWTHSCPQSPGNGTDASH
modifications: 125I-labelled
Which results are given for B1?
binding of 125I-labelled rSHBG (in words) [5]: saturable binding; binding of 125I-labelled rSHBG (in words) ([6]; bovine epididymis membranes permeabilized in digitonin, competition with unlabelled rSHBG): saturable binding; Kd ([6]; permeabilized bovine epididymis membranes, in the presence of testosterone, read-out: affinity of binding (Kd)): 500 nM

B2: SHBG: native sex hormone-binding globulin, plasma carrier of androgens and estrogens (protein, listed as Homo sapiens)
chain: MESRGPLATSRLLLLLLLLLLRHTRQGWALRPVLPTQSAHDPPAVHLSNGPGQEPIAVMTFDLTKITKTSSSFEVRTWDPEGVIFYGDTNPKDDWFMLGLRDGRPEIQLHNHWAQLTVGAGPRLDDGRWHQVEVKMEGDSVLLEVDGEEVLRLRQVSGPLTSKRHPIMRIALGGLLFPASNLRLPLVPALDGCLRRDSWLDKQAEISASAPTSLRSCDVESNPGIFLPPGTQAEFNLRDIPQPHAEPWAFSLDLGLKQAAGSGHLLALGTPENPSWLSLHLQDQKVVLSSGSGPGLDLPLVLGLPLQLKLSMSRVVLSQGSKMKALALPPLGLAPLLNLWAKPQGRLFLGALPGEDSSTSFCLNGLWAQGQRLDVDQALNRSHEIWTHSCPQSPGNGTDASH
Which Kd (SHBG receptor; membrane suspensions) does the source give for B2 here?
Its Kd is 50 nM.

And the Kd (SHBG receptor; solubilized membranes)?
Its Kd is 500 nM.
